{"source": "patent US20140213529A1", "target": "CD22 (UniProt P20273)", "sequence (P20273 20-847 limits assumed)": "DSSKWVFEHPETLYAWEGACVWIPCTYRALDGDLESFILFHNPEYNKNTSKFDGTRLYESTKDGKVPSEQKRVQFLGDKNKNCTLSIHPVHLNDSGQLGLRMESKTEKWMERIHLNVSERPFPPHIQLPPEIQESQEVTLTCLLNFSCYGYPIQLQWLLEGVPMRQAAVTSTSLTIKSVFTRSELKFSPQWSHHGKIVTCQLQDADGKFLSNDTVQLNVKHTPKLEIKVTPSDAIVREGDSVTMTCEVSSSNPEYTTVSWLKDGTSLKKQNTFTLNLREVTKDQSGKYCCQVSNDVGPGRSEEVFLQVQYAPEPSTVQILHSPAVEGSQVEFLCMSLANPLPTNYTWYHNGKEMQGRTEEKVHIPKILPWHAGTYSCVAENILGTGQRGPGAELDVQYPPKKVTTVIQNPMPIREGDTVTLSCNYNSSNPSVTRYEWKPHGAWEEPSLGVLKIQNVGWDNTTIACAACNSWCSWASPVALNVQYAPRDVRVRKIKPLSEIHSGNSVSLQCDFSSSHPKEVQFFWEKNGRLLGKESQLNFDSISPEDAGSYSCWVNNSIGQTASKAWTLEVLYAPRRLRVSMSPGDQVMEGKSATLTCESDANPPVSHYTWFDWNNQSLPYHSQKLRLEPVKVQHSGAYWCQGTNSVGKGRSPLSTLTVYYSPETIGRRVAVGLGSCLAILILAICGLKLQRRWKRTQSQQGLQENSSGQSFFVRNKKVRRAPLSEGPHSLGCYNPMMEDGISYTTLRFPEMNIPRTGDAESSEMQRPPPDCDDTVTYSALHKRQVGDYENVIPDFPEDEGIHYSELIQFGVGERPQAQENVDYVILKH", "assay": "cell-based or functional assay", "data": [{"substance": "HA22-LR", "values": [{"measurement": "cytotoxicity IC50 (ng/ml) on CA46 cells", "result": 0.11, "unit": "ng/mL"}, {"measurement": "cytotoxicity IC50 (ng/ml) on Daudi cells", "result": 0.18, "unit": "ng/mL"}, {"measurement": "cytotoxicity IC50 (ng/ml) on Raji cells", "result": 0.41, "unit": "ng/mL"}]}]}
